Measurements as given in patent US20140011734A1 (Sanofi, published 2014).
Starred links: 1 amine or outer side, 2 acyl side, 3 side chain; linkers in the order of their positions; H or OH if unused. Non-standard residues stand in square brackets, D forms with d. NH(CH2)9CO = O=C(CCCCCCCCCN[*:1])[*:2]; tBuAla = CC(C)(C)C[C@H](N)C(=O)O; Cha = N[C@@H](CC1CCCCC1)C(=O)O; Chg = N[C@H](C(=O)O)C1CCCCC1; Ac6c = NC1(C(=O)O)CCCCC1; Orn = NCCC[C@H](N)C(=O)O; Dab = NCC[C@H](N)C(=O)O; Nva = CCC[C@H](N)C(=O)O; Dap = NC[C@H](N)C(=O)O; Ac3c = NC1(C(=O)O)CC1; Aib = CC(C)(N)C(=O)O; Ahp = NCCCCCCC(=O)O; Ava = NCCCCC(=O)O; GABA = NCCCC(=O)O

B1: Cyclo[Leu-His-Asn-Leu-NH-(CH2)6-CO-Dbu-Glu-Arg-Met-Ala] (peptide)
peptide: cyclo(LHNL[Ahp][Dab]ERMA)
SMILES: CSCC[C@@H]1NC(=O)[C@H](CCCNC(=N)N)NC(=O)[C@H](CCC(=O)O)NC(=O)[C@H](CCN)NC(=O)CCCCCCNC(=O)[C@H](CC(C)C)NC(=O)[C@H](CC(N)=O)NC(=O)[C@H](Cc2c[nH]cn2)NC(=O)[C@H](CC(C)C)NC(=O)[C@H](C)NC1=O
B2: Cyclo[Leu-His-Asn-Leu-NH-(CH2)6-CO-Thr-Glu-Orn-Met-Ala] (peptide)
peptide: cyclo(LHNL[Ahp]TE[Orn]MA)
SMILES: CSCC[C@@H]1NC(=O)[C@H](CCCN)NC(=O)[C@H](CCC(=O)O)NC(=O)[C@H]([C@@H](C)O)NC(=O)CCCCCCNC(=O)[C@H](CC(C)C)NC(=O)[C@H](CC(N)=O)NC(=O)[C@H](Cc2c[nH]cn2)NC(=O)[C@H](CC(C)C)NC(=O)[C@H](C)NC1=O
B3: Cyclo[Leu-His-Asn-Leu-NH-(CH2)6-CO-Thr-Glu-Arg-Cha-Ala] (peptide)
peptide: cyclo(LHNL[Ahp]TER[Cha]A)
SMILES: CC(C)C[C@@H]1NC(=O)[C@H](C)NC(=O)[C@H](CC2CCCCC2)NC(=O)[C@H](CCCNC(=N)N)NC(=O)[C@H](CCC(=O)O)NC(=O)[C@H]([C@@H](C)O)NC(=O)CCCCCCNC(=O)[C@H](CC(C)C)NC(=O)[C@H](CC(N)=O)NC(=O)[C@H](Cc2c[nH]cn2)NC1=O
B4: Cyclo[Nva-His-Asn-Leu-NH-(CH2)6-CO-Thr-Glu-Arg-Met-Ala] (peptide)
peptide: cyclo([Nva]HNL[Ahp]TERMA)
SMILES: CCC[C@@H]1NC(=O)[C@H](C)NC(=O)[C@H](CCSC)NC(=O)[C@H](CCCNC(=N)N)NC(=O)[C@H](CCC(=O)O)NC(=O)[C@H]([C@@H](C)O)NC(=O)CCCCCCNC(=O)[C@H](CC(C)C)NC(=O)[C@H](CC(N)=O)NC(=O)[C@H](Cc2c[nH]cn2)NC1=O
B5: Cyclo[Leu-His-Asn-Leu-NH-(CH2)6-CO-Thr-Glu-Arg-Met-Dpr] (peptide)
peptide: cyclo(LHNL[Ahp]TERM[Dap])
SMILES: CSCC[C@@H]1NC(=O)[C@H](CCCNC(=N)N)NC(=O)[C@H](CCC(=O)O)NC(=O)[C@H]([C@@H](C)O)NC(=O)CCCCCCNC(=O)[C@H](CC(C)C)NC(=O)[C@H](CC(N)=O)NC(=O)[C@H](Cc2c[nH]cn2)NC(=O)[C@H](CC(C)C)NC(=O)[C@H](CN)NC1=O
B6: Cyclo[Leu-His-Asn-Leu-NH-(CH2)6-CO-Asn-Glu-Arg-Met-Ala] (peptide)
peptide: cyclo(LHNL[Ahp]NERMA)
SMILES: CSCC[C@@H]1NC(=O)[C@H](CCCNC(=N)N)NC(=O)[C@H](CCC(=O)O)NC(=O)[C@H](CC(N)=O)NC(=O)CCCCCCNC(=O)[C@H](CC(C)C)NC(=O)[C@H](CC(N)=O)NC(=O)[C@H](Cc2c[nH]cn2)NC(=O)[C@H](CC(C)C)NC(=O)[C@H](C)NC1=O
B7: Cyclo[Leu-His-Asn-Leu-NH-(CH2)6-CO-Thr-Glu-Arg-Gln-Ala] (peptide)
peptide: cyclo(LHNL[Ahp]TERQA)
SMILES: CC(C)C[C@@H]1NC(=O)[C@H](C)NC(=O)[C@H](CCC(N)=O)NC(=O)[C@H](CCCNC(=N)N)NC(=O)[C@H](CCC(=O)O)NC(=O)[C@H]([C@@H](C)O)NC(=O)CCCCCCNC(=O)[C@H](CC(C)C)NC(=O)[C@H](CC(N)=O)NC(=O)[C@H](Cc2c[nH]cn2)NC1=O
B8: Cyclo[Leu-His-Asn-Leu-NH-(CH2)6-CO-Gln-Glu-Arg-Met-Ala] (peptide)
peptide: cyclo(LHNL[Ahp]QERMA)
SMILES: CSCC[C@@H]1NC(=O)[C@H](CCCNC(=N)N)NC(=O)[C@H](CCC(=O)O)NC(=O)[C@H](CCC(N)=O)NC(=O)CCCCCCNC(=O)[C@H](CC(C)C)NC(=O)[C@H](CC(N)=O)NC(=O)[C@H](Cc2c[nH]cn2)NC(=O)[C@H](CC(C)C)NC(=O)[C@H](C)NC1=O
B9: Cyclo[Leu-His-Asn-Leu-NH-(CH2)6-CO-Thr-Glu-Arg-Leu-Ala] (peptide)
peptide: cyclo(LHNL[Ahp]TERLA)
SMILES: CC(C)C[C@@H]1NC(=O)[C@H](C)NC(=O)[C@H](CC(C)C)NC(=O)[C@H](CCCNC(=N)N)NC(=O)[C@H](CCC(=O)O)NC(=O)[C@H]([C@@H](C)O)NC(=O)CCCCCCNC(=O)[C@H](CC(C)C)NC(=O)[C@H](CC(N)=O)NC(=O)[C@H](Cc2c[nH]cn2)NC1=O
B10: Cyclo[Leu-His-Asn-Leu-NH-(CH2)6-CO-Thr-Glu-Arg-Ala-Ala] (peptide)
peptide: cyclo(LHNL[Ahp]TERAA)
SMILES: CC(C)C[C@@H]1NC(=O)[C@H](C)NC(=O)[C@H](C)NC(=O)[C@H](CCCNC(=N)N)NC(=O)[C@H](CCC(=O)O)NC(=O)[C@H]([C@@H](C)O)NC(=O)CCCCCCNC(=O)[C@H](CC(C)C)NC(=O)[C@H](CC(N)=O)NC(=O)[C@H](Cc2c[nH]cn2)NC1=O
B11: Cyclo[Cha-His-Asn-Leu-NH-(CH2)6-CO-Thr-Glu-Arg-Met-Ala] (peptide)
peptide: cyclo([Cha]HNL[Ahp]TERMA)
SMILES: CSCC[C@@H]1NC(=O)[C@H](CCCNC(=N)N)NC(=O)[C@H](CCC(=O)O)NC(=O)[C@H]([C@@H](C)O)NC(=O)CCCCCCNC(=O)[C@H](CC(C)C)NC(=O)[C@H](CC(N)=O)NC(=O)[C@H](Cc2c[nH]cn2)NC(=O)[C@H](CC2CCCCC2)NC(=O)[C@H](C)NC1=O
B12: Cyclo[Leu-His-Asn-Leu-NH-(CH2)9-CO-Thr-Glu-Arg-Met-Ala] (peptide)
peptide: cyclo(LHNL[NH(CH2)9CO]TERMA)
SMILES: CSCC[C@@H]1NC(=O)[C@H](CCCNC(=N)N)NC(=O)[C@H](CCC(=O)O)NC(=O)[C@H]([C@@H](C)O)NC(=O)CCCCCCCCCNC(=O)[C@H](CC(C)C)NC(=O)[C@H](CC(N)=O)NC(=O)[C@H](Cc2c[nH]cn2)NC(=O)[C@H](CC(C)C)NC(=O)[C@H](C)NC1=O
B13: Cyclo[Leu-His-Asn-Leu-NH-(CH2)3-CO-Ac3-Thr-Glu-Arg-Met-Ala] (peptide)
peptide: cyclo(LHNL[GABA][Ac3c]TERMA)
SMILES: CSCC[C@@H]1NC(=O)[C@H](CCCNC(=N)N)NC(=O)[C@H](CCC(=O)O)NC(=O)[C@H]([C@@H](C)O)NC(=O)C2(CC2)NC(=O)CCCNC(=O)[C@H](CC(C)C)NC(=O)[C@H](CC(N)=O)NC(=O)[C@H](Cc2c[nH]cn2)NC(=O)[C@H](CC(C)C)NC(=O)[C@H](C)NC1=O
B14: Cyclo[Leu-His-Asn-Leu-NH-(CH2)3-CO-Aib-Thr-Glu-Arg-Met-Ala] (peptide)
peptide: cyclo(LHNL[GABA][Aib]TERMA)
SMILES: CSCC[C@@H]1NC(=O)[C@H](CCCNC(=N)N)NC(=O)[C@H](CCC(=O)O)NC(=O)[C@H]([C@@H](C)O)NC(=O)C(C)(C)NC(=O)CCCNC(=O)[C@H](CC(C)C)NC(=O)[C@H](CC(N)=O)NC(=O)[C@H](Cc2c[nH]cn2)NC(=O)[C@H](CC(C)C)NC(=O)[C@H](C)NC1=O
B15: Cyclo[Leu-His-Asn-Leu-NH-(CH2)6-CO-Thr-Glu-Arg-Chg-Ala] (peptide)
peptide: cyclo(LHNL[Ahp]TER[Chg]A)
SMILES: CC(C)C[C@@H]1NC(=O)[C@H](C)NC(=O)[C@H](C2CCCCC2)NC(=O)[C@H](CCCNC(=N)N)NC(=O)[C@H](CCC(=O)O)NC(=O)[C@H]([C@@H](C)O)NC(=O)CCCCCCNC(=O)[C@H](CC(C)C)NC(=O)[C@H](CC(N)=O)NC(=O)[C@H](Cc2c[nH]cn2)NC1=O
B16: Cyclo[Leu-His-Asn-Leu-Dpr-NH-(CH2)3-CO-Thr-Glu-Arg-Met-Ala] (peptide)
peptide: cyclo(LHNL[Dap][GABA]TERMA)
SMILES: CSCC[C@@H]1NC(=O)[C@H](CCCNC(=N)N)NC(=O)[C@H](CCC(=O)O)NC(=O)[C@H]([C@@H](C)O)NC(=O)CCCNC(=O)[C@H](CN)NC(=O)[C@H](CC(C)C)NC(=O)[C@H](CC(N)=O)NC(=O)[C@H](Cc2c[nH]cn2)NC(=O)[C@H](CC(C)C)NC(=O)[C@H](C)NC1=O
B17: Cyclo[Leu-His-Asn-Leu-Gly-NH-(CH2)4-CO-Thr-Glu-Arg-Met-Ala] (peptide)
peptide: cyclo(LHNLG[Ava]TERMA)
SMILES: CSCC[C@@H]1NC(=O)[C@H](CCCNC(=N)N)NC(=O)[C@H](CCC(=O)O)NC(=O)[C@H]([C@@H](C)O)NC(=O)CCCCNC(=O)CNC(=O)[C@H](CC(C)C)NC(=O)[C@H](CC(N)=O)NC(=O)[C@H](Cc2c[nH]cn2)NC(=O)[C@H](CC(C)C)NC(=O)[C@H](C)NC1=O

Molecular target: T1, blood platelet receptor glycoprotein Ib-IX-V complex (GPIb) (human, UniProt P07359 17-652; P13224 26-206; P14770 17-177; P40197 17-560)
T1 construct: whole, on cells; also called GPIb complex; GPIb receptor
Assay: inhibition of static adhesion of human platelets to coated vWF-A1; grade C = IC50 lower than 1 µM
Procedure: (§1) Platelet rich plasma was carefully transferred again to fresh containers, PGE1 (0.5 μg/ml, Sigma) was added and the suspension was allowed to rest for 5 min. This was followed by another centrifugation step for 15 min at 360 g. The supernatant was discarded and the cell pellets were carefully resuspended in tyrode buffer (NaCl, 137 mM (Sigma S-3014); KCl, 2.7 mM (Sigma P-9541); NaHCO₃,12 mM (Riedel deHaen 31437); NaH₂PO₄×2H₂O, 0.36 mM (Merck 6345); MgCl₂×6 H₂O, 1 mM (Sigma M-2670); Hepes, 10 mM (Sigma H-1016); glucose, 5.6 mM (Merck 8342); BSA, 0.1% (Sigma A7906)), and PGE1 (0.25 μg/ml) was added. After 5 min of resting the suspension was spun down for 15 min at 300 g. The supernatant was discarded and the pellets were carefully resuspended in TBS buffer (Tris-HCl, 50 mM (Fluka 93371); NaCl, 120 mM (Sigma S-3014); KCl, 2.7 mM (Sigma P-9541); CaCl₂, 0.05 mM (Sigma C-3306); MgCl₂×6 H₂O, 2 mM (Sigma M-2670); BSA, 0.1% (Sigma A7906); pH 7.4). The platelet count was adjusted to 2×10⁵ cells/μl, and the suspensions from individual donors were pooled at this stage. The platelets were allowed to rest for 30 min at room temperature before calcein AM (2.5 μM per 2×10⁵ cells/pi (Molecular Probes C-3099)) was added. This was followed by 15 min incubation in the dark. Cells were diluted to 5×10⁴ cells/μl and ReoPro (3 μg/ml (Centocor B. V., Leiden, N L)) was added, followed by a 10 min incubation period in the dark before adding the platelets to the assay plates.
(§2) 96 well plates (Greiner hb, black, clear bottom, F, 655097) were coated with human recombinant vWF-A1 domain (1.5 μg/well, AA 475-706, expressed in E. coli) in Tris buffer (pH 7.4; Tris-HCl, 25 mM; NaCl, 150 mM) and incubated for 1 h at room temperature. After washing the wells 3× with TBS, blocking buffer (TBS with 5% BSA) was added followed by an incubation for 1 h. The wells were washed again 3× with TBS before 200 μl TBS were added to each well, preventing them from drying out. TBS was flicked out and serial dilutions of the test compound were added. The washed and calcein AM labeled thrombocytes were added to the wells (2.5×10⁶ cells/well). Following an adhesion period of 1.5 h in the dark the wells were washed 3× with TBS. Measurement of fluorescence per well was performed in a SpectraMax M5 reader (Molecular Devices). From the raw data % inhibition and IC₅₀ values were calculated.

T1 sequence (P07359 17-652, chain 1 of 4): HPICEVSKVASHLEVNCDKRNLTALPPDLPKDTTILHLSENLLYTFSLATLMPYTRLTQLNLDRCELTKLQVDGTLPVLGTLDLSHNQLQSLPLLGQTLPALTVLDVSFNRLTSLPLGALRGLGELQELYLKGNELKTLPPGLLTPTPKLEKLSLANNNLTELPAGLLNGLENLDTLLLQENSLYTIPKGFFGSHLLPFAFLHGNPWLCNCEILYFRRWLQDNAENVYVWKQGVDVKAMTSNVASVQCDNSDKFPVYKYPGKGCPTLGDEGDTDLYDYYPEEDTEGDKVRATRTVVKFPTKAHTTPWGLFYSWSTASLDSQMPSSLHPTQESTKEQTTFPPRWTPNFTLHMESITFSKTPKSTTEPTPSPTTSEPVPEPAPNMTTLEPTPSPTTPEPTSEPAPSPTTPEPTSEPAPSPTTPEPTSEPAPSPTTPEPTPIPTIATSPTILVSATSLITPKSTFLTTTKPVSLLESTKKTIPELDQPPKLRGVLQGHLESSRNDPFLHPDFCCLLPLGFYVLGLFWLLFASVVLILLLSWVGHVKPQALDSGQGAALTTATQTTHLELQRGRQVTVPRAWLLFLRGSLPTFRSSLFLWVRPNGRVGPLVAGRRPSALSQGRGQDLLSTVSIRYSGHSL
T1 sequence (P13224 26-206, chain 2 of 4): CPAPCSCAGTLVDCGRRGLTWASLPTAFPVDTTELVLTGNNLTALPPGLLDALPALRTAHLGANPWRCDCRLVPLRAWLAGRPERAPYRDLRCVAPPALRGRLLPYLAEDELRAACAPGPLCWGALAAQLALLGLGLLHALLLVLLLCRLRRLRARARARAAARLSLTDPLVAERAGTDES
T1 sequence (P14770 17-177, chain 3 of 4): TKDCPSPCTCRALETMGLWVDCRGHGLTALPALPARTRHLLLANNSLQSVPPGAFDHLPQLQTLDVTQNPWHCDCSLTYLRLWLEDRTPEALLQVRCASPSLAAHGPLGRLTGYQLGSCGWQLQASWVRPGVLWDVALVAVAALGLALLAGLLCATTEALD
T1 sequence (P40197 17-560, chain 4 of 4): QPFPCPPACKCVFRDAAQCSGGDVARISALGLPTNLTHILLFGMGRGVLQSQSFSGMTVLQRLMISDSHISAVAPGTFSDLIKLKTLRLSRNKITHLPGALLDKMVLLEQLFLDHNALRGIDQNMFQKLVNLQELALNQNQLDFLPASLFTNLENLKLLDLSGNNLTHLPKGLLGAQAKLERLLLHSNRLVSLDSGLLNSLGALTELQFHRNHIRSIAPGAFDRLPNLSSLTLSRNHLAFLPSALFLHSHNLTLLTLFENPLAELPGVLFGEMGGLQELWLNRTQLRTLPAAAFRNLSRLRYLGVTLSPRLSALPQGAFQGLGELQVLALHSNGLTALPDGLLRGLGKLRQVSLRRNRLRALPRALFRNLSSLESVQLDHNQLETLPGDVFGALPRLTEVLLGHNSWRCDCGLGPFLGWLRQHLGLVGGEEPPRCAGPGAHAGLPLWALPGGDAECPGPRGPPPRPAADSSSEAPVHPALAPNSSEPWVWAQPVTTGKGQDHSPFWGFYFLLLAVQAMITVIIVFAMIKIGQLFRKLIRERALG

Binder | IC50 [µM]
B1 | < 1
B2 | < 1
B3 | < 1
B4 | < 1
B5 | < 1
cyclo([tBuAla]HNL[Ahp]TERMA) [Cyclo[Npg-His-Asn-Leu-NH-(CH2)6-CO-Thr-Glu-Arg-Met-Ala]] | < 1
B6 | < 1
B7 | < 1
B8 | < 1
B9 | < 1
B10 | < 1
B11 | < 1

Molecular target: T1, blood platelet receptor glycoprotein …
Assay: inhibition of static adhesion of human platelets to coated vWF-A1; grade B = IC50 between 1 µM and 10 µM
Procedure: as §1, §2

Binder | IC50 [µM]
cyclo([Ac6c]HNL[Ahp]TERMA) [Cyclo[Ac6-His-Asn-Leu-NH-(CH2)6-CO-Thr-Glu-Arg-Met-Ala]] | 1 to 10
B12 | 1 to 10
B13 | 1 to 10
B14 | 1 to 10
B15 | 1 to 10
B16 | 1 to 10
B17 | 1 to 10
